# Measurements taken from patent US20040009511A1, “Identification of compounds which stimulate bone formation using a cell-based screening assay targeting BMP signaling” (priority 2002, published 2004).
# Key:
# [1] = tested on: 9×SBE-6×OSE2-OC-luc reporter construct in 2T3 C-17 cells; assay: Luciferase assay, 9×SBE-6×OSE2-OC-luc reporter stably transfected in 2T3 clone C-17; assay type: cell-based; set-up: Luciferase Activity: unit not given here; details: for Effect on luciferase activity of the reporter construct: 2T3 C-17 cells
# Method: (§1) An oligonucleotide containing 9 copies of Smad1 response element (9×SBE) and 6 copies of Cbfa1 response element (6×OSE2) was synthesized in the DNA laboratory at University of Texas Health Science Center at San Antonio. The osteocalcin basal promoter (OC, −155/+1) was amplified by Polymerase Chain Reaction (PCR) using mouse genomic DNA as a template and cloned into pGL3 vector. An 9×SBE-6×OSE2 oligonucleotide was cloned upstream of osteocalcin basal promoter.
# (§2) C2C12 and 2T3 cells were plated in 6-well culture plates at densities of 4×10^5 and 2×10^5 cells/well and cultured with DMEM or α minimal essential medium (α MEM) supplemented with 10% FCS for 24 hours. A 9×SBE-6×OSE2-OC-luc-reporter construct (2 μg/well) was co-transfected with pcDNA3 empty vector (0.2 mg/well) in C2C12 and 2T3 cells using lipofactamine plus reagents (Gibco/BRL). Forty eight hours later, G418 (200 μg/ml) was added to the culture plates. Four weeks after G418 selection, the G418 resistant cells were plated in 96-well plates at the density of 1 cell/well and cloned by limiting dilution method.
# (§3) C2C12 and 2T3 cells, in which 9×SBE-6×OSE2-OC-luc-reporter construct was stably transfected, were plated in 96-well culture plates at densities of 1×10^4 and 0.5×10^4 cells/well and cultured for 24 hours. The medium was changed to fresh medium supplemented with 2% FCS and different growth factors or hormone were added to culture medium for 24 hours or different compounds were added to culture medium for 2, 6, 12, 24 and 48 hours. The cell lysates were extracted and luciferase activities were determined by luciferase assay kit (Promega, Madison, Wis.) using a Luminometer.
# (§4) At the end of the incubation, the cell lysates were extracted using lysis buffer and luciferase activities were measured using a luciferase assay kit (Promega).
# [2] = tested on: BMP production in MG-63 cells; assay: Conditioned medium of treated MG-63 cells tested on 2T3 C-17 reporter cells; assay type: cell-based, human; details: MG-63 treated 1 and 5 hours, washed, 24 hour CM; 2T3 C-17 treated with CM 48 hours
# Method: 2T3 C-17 cells were then treated with said CM for 48 hours.
# [3] = tested on: 9×SBE-6×OSE2-OC-luc reporter construct in C2C12 C-10-62 cells; assay: Luciferase assay, 9×SBE-6×OSE2-OC-luc reporter stably transfected in C2C12 clone C-10-62; assay type: cell-based; details: 24 hours
# Method: as §1, §2, §3, §4
# [4] = tested on: 9×SBE-6×OSE2-OC-luc reporter construct; assay: Luciferase assay, 9×SBE-6×OSE2-OC-luc reporter construct, cells not specified; assay type: cell-based; details: stimulation of luciferase activity; stated for C2C12 C-10-62 and 2T3 C-17 without distinction
# Excerpt: as §1, §3
# Further, a reporter construct which contains multiple copies of both Smad1 (SBE) and Cbfa1 (OSE2) response elements (9×SBE-6×OSE2-OC-luc) was made.
# [5] = Epoxomicin 0.0156 μM, cell type not given
# [6] = Epoxomicin 0.0625 μM, cell type not given
# [7] = Epoxomicin 0.125 μM, cell type not given
# [8] = Epoxomicin 0.25 μM, cell type not given
# [9] = Epoxomicin 0.5 μM, cell type not given
# [10] = Epoxomicin 1 μM, cell type not given
# [11] = BMP-4 0.049 ng/ml, 24 hours, 2T3 clone 17
# [12] = BMP-4 0.098 ng/ml, 24 hours, 2T3 clone 17
# [13] = BMP-4 0.195 ng/ml, 24 hours, 2T3 clone 17
# [14] = BMP-4 0.39 ng/ml, 24 hours, 2T3 clone 17
# [15] = BMP-4 0.78 ng/ml, 24 hours, 2T3 clone 17
# [16] = BMP-4 1.56 ng/ml, 24 hours, 2T3 clone 17
# [17] = BMP-4 3.125 ng/ml, 24 hours, 2T3 clone 17
# [18] = BMP-4 6.25 ng/ml, 24 hours, 2T3 clone 17
# [19] = BMP-4 12.5 ng/ml, 24 hours, 2T3 clone 17
# [20] = BMP-4 25 ng/ml, 24 hours, 2T3 clone 17
# [21] = BMP-4 50 ng/ml, 24 hours, 2T3 clone 17
# [22] = BMP-4 100 ng/ml, 24 hours, 2T3 clone 17
# [23] = BMP-7 1.95 ng/ml, 24 hours, 2T3 clone 17
# [24] = BMP-7 3.91 ng/ml, 24 hours, 2T3 clone 17
# [25] = BMP-7 7.81 ng/ml, 24 hours, 2T3 clone 17
# [26] = BMP-7 15.625 ng/ml, 24 hours, 2T3 clone 17
# [27] = BMP-7 31.25 ng/ml, 24 hours, 2T3 clone 17
# [28] = BMP-7 62.5 ng/ml, 24 hours, 2T3 clone 17
# [29] = BMP-7 125 ng/ml, 24 hours, 2T3 clone 17
# [30] = BMP-7 250 ng/ml, 24 hours, 2T3 clone 17
# [31] = BMP-7 500 ng/ml, 24 hours, 2T3 clone 17
# [32] = BMP-7 1000 ng/ml, 24 hours, 2T3 clone 17
molecule,measurement,setting,value
"CC[C@H](C)[C@H](NC(=O)[C@H]([C@@H](C)CC)N(C)C(C)=O)C(=O)N[C@H](C(=O)N[C@@H](CC(C)C)C(=O)[C@@]1(C)CO1)[C@@H](C)O [Epoxomicin, epoxomicin, reference compound]",Luciferase Activity,[1]; [5],0.041
same,Luciferase Activity (fold increase),[1]; [5],1.0 fold
same,Luciferase Activity,[1]; [6],0.064
same,Luciferase Activity (fold increase),[1]; [6],1.6 fold
same,Luciferase Activity,[1]; [7],0.098
same,Luciferase Activity (fold increase),[1]; [7],2.4 fold
same,Luciferase Activity,[1]; [8],0.142
same,Luciferase Activity (fold increase),[1]; [8],3.5 fold
same,Luciferase Activity,[1]; [9],0.153
same,Luciferase Activity (fold increase),[1]; [9],3.7 fold
same,Luciferase Activity,[1]; [10],0.120
same,Luciferase Activity (fold increase),[1]; [10],2.9 fold
same,Effect of 24 hour conditioned medium of treated MG-63 cells on the reporter construct,[2],CM stimulated the reporter construct in a concentration-dependent manner
"BMP-4: Bone morphogenetic protein 4 (protein, UniProt P12644 293-408, looked up) Bone morphogenetic protein 4: SPKHHSQRARKKNKNCRRHSLYVDFSDVGWNDWIVAPPGYQAFYCHGDCPFPLADHLNSTNHAIVQTLVNSVNSSIPKACCVPTELSAISMLYLDEYDKVVLKNYQEMVVEGCGCR",Effect on luciferase activity of the reporter construct,[1]; 24 hours,stimulated luciferase activity in a dose-dependent manner
same,Luciferase Activity,[1]; [11],0.0745
same,Luciferase Activity (fold increase),[1]; [11],1.6 fold
same,Luciferase Activity,[1]; [12],0.111
same,Luciferase Activity (fold increase),[1]; [12],2.3 fold
same,Luciferase Activity,[1]; [13],0.141
same,Luciferase Activity (fold increase),[1]; [13],2.9 fold
same,Luciferase Activity,[1]; [14],0.384
same,Luciferase Activity (fold increase),[1]; [14],8.0 fold
same,Luciferase Activity,[1]; [15],0.597
same,Luciferase Activity (fold increase),[1]; [15],12.4 fold
same,Luciferase Activity,[1]; [16],0.821
same,Luciferase Activity (fold increase),[1]; [16],17.1 fold
same,Luciferase Activity,[1]; [17],1.064
same,Luciferase Activity (fold increase),[1]; [17],22.2 fold
same,Luciferase Activity,[1]; [18],1.256
same,Luciferase Activity (fold increase),[1]; [18],26.2 fold
same,Luciferase Activity,[1]; [19],1.534
same,Luciferase Activity (fold increase),[1]; [19],32.0 fold
same,Luciferase Activity,[1]; [20],1.576
same,Luciferase Activity (fold increase),[1]; [20],32.8 fold
same,Luciferase Activity,[1]; [21],1.887
same,Luciferase Activity (fold increase),[1]; [21],39.3 fold
same,Luciferase Activity,[1]; [22],2.166
same,Luciferase Activity (fold increase),[1]; [22],45.1 fold
same,Effect on luciferase activity of the reporter construct,[3],stimulated luciferase activity in a dose-dependent manner
same,Minimal effective dose,[4],0.1 to 0.2 ng/mL
"BMP-7: Bone morphogenetic protein 7 (protein, UniProt P18075 293-431, looked up) Bone morphogenetic protein 7: STGSKQRSQNRSKTPKNQEALRMANVAENSSSDQRQACKKHELYVSFRDLGWQDWIIAPEGYAAYYCEGECAFPLNSYMNATNHAIVQTLVHFINPETVPKPCCAPTQLNAISVLYFDDSSNVILKKYRNMVVRACGCH",Effect on luciferase activity of the reporter construct,[1]; 24 hours,stimulated luciferase activity in a dose-dependent manner
same,Luciferase Activity,[1]; [23],0.076
same,Luciferase Activity (fold increase),[1]; [23],1.1 fold
same,Luciferase Activity,[1]; [24],0.090
same,Luciferase Activity (fold increase),[1]; [24],1.3 fold
same,Luciferase Activity,[1]; [25],0.108
same,Luciferase Activity (fold increase),[1]; [25],1.6 fold
same,Luciferase Activity,[1]; [26],0.148
same,Luciferase Activity (fold increase),[1]; [26],2.2 fold
same,Luciferase Activity,[1]; [27],0.216
same,Luciferase Activity (fold increase),[1]; [27],3.2 fold
same,Luciferase Activity,[1]; [28],0.374
same,Luciferase Activity (fold increase),[1]; [28],5.6 fold
same,Luciferase Activity,[1]; [29],0.813
same,Luciferase Activity (fold increase),[1]; [29],12.1 fold
same,Luciferase Activity,[1]; [30],1.425
same,Luciferase Activity (fold increase),[1]; [30],21.3 fold
same,Luciferase Activity,[1]; [31],2.224
same,Luciferase Activity (fold increase),[1]; [31],33.2 fold
same,Luciferase Activity,[1]; [32],3.404
same,Luciferase Activity (fold increase),[1]; [32],50.8 fold
same,Effect on luciferase activity of the reporter construct,[3],stimulated luciferase activity in a dose-dependent manner
same,Minimal effective dose,[4],15 to 30 ng/mL
